Assay results reported in doi:10.64898/2025.12.08.693079.

Experiments:
[1] = target: purified 20S core peptidase (CP) (S. cerevisiae) (UniProt P21242); experiment: NADH-coupled ATPase displacement assay
[2] = target: purified 20S core peptidase (CP) (S. cerevisiae) (UniProt P21242); experiment: Suc-LLVY-AMC peptidase activity titration

Sequence of UniProt P21242 (P21242 whole entry, looked up): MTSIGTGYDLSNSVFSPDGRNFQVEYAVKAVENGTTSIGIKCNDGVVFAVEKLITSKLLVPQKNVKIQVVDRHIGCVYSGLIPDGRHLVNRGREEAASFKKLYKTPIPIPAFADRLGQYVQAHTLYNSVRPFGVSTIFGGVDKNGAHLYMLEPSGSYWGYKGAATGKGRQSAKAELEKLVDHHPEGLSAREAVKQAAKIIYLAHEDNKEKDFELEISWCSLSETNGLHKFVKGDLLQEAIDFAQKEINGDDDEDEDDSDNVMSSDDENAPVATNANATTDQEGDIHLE

IC50 [1]: 3000 nM | Kd [2]: 65 nM
Substance: 3x-Flag-tagged Blm10 (from UniProt P43583 1-2143) (natural protein)
